Assay results reported in patent US20240309073A1 (SERUM INSTITUTE OF INDIA PRIVATE, published 2024).

Legend:
Assay in all cases: cell-based or functional assay
[1] = biological target: T1, Dengue virus serotype DV4 (Dengue virus serotype 4 (DV4), UniProt P09866 280-774)
[2] = biological target: T2, Dengue virus serotype DV3 (Dengue virus serotype 3 (DV3), UniProt Q6YMS4 281-773)
[3] = biological target: T3, Dengue virus serotype DV2 (Dengue virus serotype 2 (DV2), UniProt P29990 281-775)
[4] = biological target: T3, Dengue virus serotype DV2; remark: listed apart in the source
[5] = biological target: T1, Dengue virus serotype DV4; remark: listed apart in the source
[6] = biological target: T2, Dengue virus serotype DV3; remark: listed apart in the source
[7] = biological target: T3, Dengue virus serotype DV2; remark: listed apart in the source

T1 sequence (P09866 280-774 limits assumed): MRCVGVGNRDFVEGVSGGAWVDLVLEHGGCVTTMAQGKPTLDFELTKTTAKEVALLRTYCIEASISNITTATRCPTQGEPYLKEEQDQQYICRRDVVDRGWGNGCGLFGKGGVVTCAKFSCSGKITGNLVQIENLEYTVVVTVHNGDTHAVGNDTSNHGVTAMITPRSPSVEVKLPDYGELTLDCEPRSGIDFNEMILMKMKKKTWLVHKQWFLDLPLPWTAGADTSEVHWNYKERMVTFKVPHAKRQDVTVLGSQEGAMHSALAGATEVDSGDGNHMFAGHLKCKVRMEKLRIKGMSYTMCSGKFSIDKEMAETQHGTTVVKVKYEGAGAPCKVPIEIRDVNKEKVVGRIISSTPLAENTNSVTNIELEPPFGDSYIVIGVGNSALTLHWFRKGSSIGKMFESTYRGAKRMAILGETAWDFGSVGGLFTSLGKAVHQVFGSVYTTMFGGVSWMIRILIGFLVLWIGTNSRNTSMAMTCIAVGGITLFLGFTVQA

B1: Dengue (VIS513) Monoclonal antibody (antibody, human IgG1, kappa, V domains shown)
VH: QVQLVQSGAEVKKPGASVKVSCKAGFNIKDVYMSWVRQAPEQGLEWMGRIDPENGDTKYDPKLQGRVTMTADTSTNTAYMELRSLRSDDTAVYYCARGWEGFAYWGQGTLVTVSS
VL: DIVMTQSPASLAVSLGERATISCRASENVDKYGNSFMHWYQQKPGQPPKLLIYRASELQWGVPDRFSGSGSGTDFTLTISSLQAEDVAVYYCQRSNEVPWTFGQGTKLEIKR
[1]
  EC50 (ng/ml) by PRNT assay; Batch 1, stored at 2-8° C., 0 day: 30.3 ng/mL
  EC50 (ng/ml) by PRNT assay; Batch 1, stored at 2-8° C., 3 months: 50.8 ng/mL
  EC50 (ng/ml) by PRNT assay; Batch 1, stored at 2-8° C., 6 months: 24 ng/mL
  EC50 (ng/ml) by PRNT assay; Batch 1, stored at 2-8° C., 9 months: 23.4 ng/mL
  EC50 (ng/ml) by PRNT assay; Batch 2, stored at 2-8° C., 0 day: 22.5 ng/mL
  EC50 (ng/ml) by PRNT assay; Batch 2, stored at 2-8° C., 3 months: 22.4 ng/mL
  EC50 (ng/ml) by PRNT assay; Batch 2, stored at 2-8° C., 6 months: 16.6 ng/mL
  EC50 (ng/ml) by PRNT assay; Batch 2, stored at 2-8° C., 9 months: 19.6 ng/mL
[2]
  EC50 (ng/ml) by PRNT assay; Batch 1, stored at 2-8° C., 0 day: 14.4 ng/mL
  EC50 (ng/ml) by PRNT assay; Batch 1, stored at 2-8° C., 3 months: 14.7 ng/mL
  EC50 (ng/ml) by PRNT assay; Batch 1, stored at 2-8° C., 6 months: 5.58 ng/mL
  EC50 (ng/ml) by PRNT assay; Batch 1, stored at 2-8° C., 9 months: 4.57 ng/mL
  EC50 (ng/ml) by PRNT assay; Batch 2, stored at 2-8° C., 0 day: 13.2 ng/mL
  EC50 (ng/ml) by PRNT assay; Batch 2, stored at 2-8° C., 6 months: 6.53 ng/mL
  EC50 (ng/ml) by PRNT assay; Batch 2, stored at 2-8° C., 9 months: 7.05 ng/mL
[3]
  EC50 (ng/ml) by PRNT assay; Batch 1, stored at 2-8° C., 0 day: 5.9 ng/mL
  EC50 (ng/ml) by PRNT assay; Batch 1, stored at 2-8° C., 3 months: 8.03 ng/mL
  EC50 (ng/ml) by PRNT assay; Batch 1, stored at 2-8° C., 6 months: 3.58 ng/mL
  EC50 (ng/ml) by PRNT assay; Batch 1, stored at 2-8° C., 9 months: 3.31 ng/mL
  EC50 (ng/ml) by PRNT assay; Batch 2, stored at 2-8° C., 0 day: 3.26 ng/mL
  EC50 (ng/ml) by PRNT assay; Batch 2, stored at 2-8° C., 3 months: 5.69 ng/mL
  EC50 (ng/ml) by PRNT assay; Batch 2, stored at 2-8° C., 6 months: 4.15 ng/mL
  EC50 (ng/ml) by PRNT assay; Batch 2, stored at 2-8° C., 9 months: 2.87 ng/mL
[4]
  EC50 (ng/ml) by PRNT assay; Batch 1, 40° C. study, Control, 0 day: 6.66 ng/mL
  EC50 (ng/ml) by PRNT assay; Batch 1, 40° C. study, Control, 7 days: 6.37 ng/mL
  EC50 (ng/ml) by PRNT assay; Batch 1, 40° C. study, Control, 14 days: 6.18 ng/mL
  EC50 (ng/ml) by PRNT assay; Batch 1, stored at 40° C., Test, 7 days: 26.9 ng/mL
  EC50 (ng/ml) by PRNT assay; Batch 1, stored at 40° C., Test, 14 days: 36.1 ng/mL
[5]
  EC50 (ng/ml) by PRNT assay; Batch 1, stored at 25° C., 0 day: 30.3 ng/mL
  EC50 (ng/ml) by PRNT assay; Batch 1, stored at 25° C., 30 days: 35.3 ng/mL
  EC50 (ng/ml) by PRNT assay; Batch 2, stored at 25° C., 0 day: 22.5 ng/mL
  EC50 (ng/ml) by PRNT assay; Batch 2, stored at 25° C., 30 days: 30.7 ng/mL
[6]
  EC50 (ng/ml) by PRNT assay; Batch 1, stored at 25° C., 0 day: 14.4 ng/mL
  EC50 (ng/ml) by PRNT assay; Batch 1, stored at 25° C., 30 days: 9.63 ng/mL
  EC50 (ng/ml) by PRNT assay; Batch 2, stored at 25° C., 0 day: 13.2 ng/mL
  EC50 (ng/ml) by PRNT assay; Batch 2, stored at 25° C., 30 days: 9.25 ng/mL
[7]
  EC50 (ng/ml) by PRNT assay; Batch 1, stored at 25° C., 0 day: 5.9 ng/mL
  EC50 (ng/ml) by PRNT assay; Batch 1, stored at 25° C., 30 days: 5.6 ng/mL
  EC50 (ng/ml) by PRNT assay; Batch 2, stored at 25° C., 0 day: 3.26 ng/mL
  EC50 (ng/ml) by PRNT assay; Batch 2, stored at 25° C., 30 days: 5.51 ng/mL
